Source: patent US20250092124A1 (YUNNAN BAIYAO GROUP, published 2025)

Experiments:
[1] = molecular target: T1, GDF15-HIS (ACROBiosystems, CAT #: GD5-H5149) (human, UniProt Q99988 197-308); experiment: ELISA, GDF15-HIS coated
T1 construct: Bought protein; also called GDF15 (ACROBiosystems, GD5-H5149); human GDF15; not shown: His tag
T1 sequence (looked up): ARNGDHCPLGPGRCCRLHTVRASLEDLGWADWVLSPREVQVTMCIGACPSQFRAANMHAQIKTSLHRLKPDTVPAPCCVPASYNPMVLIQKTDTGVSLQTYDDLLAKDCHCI
Method: The experiment was performed as detailed in Example 2, except that the coating protein was GDF15-HIS (ACROBiosystems, CAT #: GD5-H5149), and the antibodies to be tested (the humanized antibodies), negative control antibody (hIgG1), positive control antibodies Ponsegromab (Pfizer; Drug Bank: D11909) and AV380-hlgG1 (the heavy chain and light chain constant regions of AV380-mIgG1 were replaced with the constant regions of human IgG, i.e., SEQ ID NO. 5 and SEQ ID NO. 6) were added to each well of the coated plate.

[2] = molecular target: T1, GDF15-HIS (ACROBiosystems, CAT #: …); experiment: ELISA in stability test, antibody after 40 °C for 1 week; coated antigen not named
Method: (§1) An appropriate amount of each antibody was taken and adjusted to 10 mg/mL, and was placed at 40° C. for 1 and 2 weeks. Protein aggregation was detected using SEC-HPLC, and protein binding activity change was detected by ELISA.

[3] = molecular target: T1, GDF15-HIS (ACROBiosystems, CAT #: …); experiment: ELISA in stability test, antibody after pH 3.6 for 2-4 h; coated antigen not named
Method: An appropriate amount of each antibody was taken and adjusted to 5 mg/mL in storage buffer adjusted to pH 3.6 using an ultrafiltration tube. The antibodies were placed at room temperature for 2-4 hours, then protein aggregation was detected using SEC-HPLC, and protein binding activity change was detected by ELISA.

[4] = molecular target: T1, GDF15-HIS (ACROBiosystems, CAT #: …); experiment: cell-based or functional assay
[5] = molecular target: T1, GDF15-HIS (ACROBiosystems, CAT #: …); experiment: ELISA in stability test, antibody after 5 freeze-thaw cycles; coated antigen not named
Method: An appropriate amount of each antibody was taken and adjusted to 10 mg/mL, followed by freezing at −80° C. for 10 min, and placing in an ice-water mixture to slowly thaw. The above procedure was repeated 5 times. Protein aggregation was detected using SEC-HPLC, and protein binding activity change was detected by ELISA.

[6] = molecular target: T1, GDF15-HIS (ACROBiosystems, CAT #: …); experiment: ELISA in stability test, antibody before treatment; coated antigen not named; before treatment (unstressed antibody, 10 mg/mL)
[7] = molecular target: T1, GDF15-HIS (ACROBiosystems, CAT #: …); experiment: cell-based or functional assay; remark: listed apart in the source
[8] = molecular target: T1, GDF15-HIS (ACROBiosystems, CAT #: …); experiment: ELISA in stability test, antibody after 40 °C for 2 weeks; coated antigen not named
Method: as §1

[9] = molecular target: T2, GDF3 (R&D, 5754-G3-010) (UniProt Q9NR23 251-364); experiment: ELISA, GDF3 coated at 1 µg/ml, HRP-anti-human IgG
T2 sequence (looked up): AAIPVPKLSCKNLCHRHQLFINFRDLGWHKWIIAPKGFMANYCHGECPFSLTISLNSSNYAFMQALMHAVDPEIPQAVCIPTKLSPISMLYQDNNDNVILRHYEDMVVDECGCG
Method: GDF15 (ACROBiosystems, GDS-HS149), GDF1 (R&D, 6937-GD-010), and GDF3 (R&D, 5754-G3-010) proteins were dissolved in PBS at a concentration of 1 μg/ml and were used to coat ELISA 96-well plate. On the next day, the 96-well plate was blocked with 2% BSA in PBS for 1 hour. After removing the blocking solution, GDF15 antibody 53E5 (hz), control antibody Ponsegromab and irrelevant hIgG1 were added at 4 μg/ml. After incubation at room temperature for 1 hour, the plate was washed, and then HRP-anti-human IgG was added. After incubation at room temperature for 1 hour, the HRP enzyme activity signal (OD450) was detected. The OD450 value is the relative signal of the antibody binding amount.

[10] = molecular target: T1, GDF15-HIS (ACROBiosystems, CAT #: …); experiment: BLI (ForteBio Octet), antibody immobilised, GDF15 200-6.25 nM
[11] = molecular target: T3, GDF15-mFC protein (human; mouse, UniProt Q99988 197-308); experiment: competitive ELISA, GFRAL-HIS coated (competitor), GDF15-mFc 0.3 µg/ml pre-incubated with antibody
T3 construct: extracellular domain;domain: IgG2a-FC; also called GDF15-mFc fusion protein
T3 sequence (looked up): T1 sequence (looked up)
Method: GFRAL-HIS protein (ACROBiosystems, GFA-H52H3) was dissolved in PBS at a concentration of […] and was used to coat ELISA 96-well plate one day before blocking the plate with 2% BSA in PBS. 53E5 (hz), and control antibodies Ponsegromab and AV380-hIgG1 were 3.16-fold diluted for 10 gradients with a starting concentration of 20 μg/ml. At the same time, GDF15-mFc protein was added at a final concentration of 0.3 μg/ml. After incubation at room temperature for 1 hour, the mixtures were added to 96-well plate coated with GFRAL-HIS. After incubated at room temperature for 1 hour, the plate was washed and then HRP-anti-mouse IgG was added to the plate. After incubation at room temperature for 1 hour, the HRP enzyme activity (OD450) was detected. The HRP enzyme activity represents the relative amount of GDF15-mFc protein bound to GFRAL. The OD450 values and antibody concentrations were plotted. The dose-effect curve was fitted using the log (agonist) vs. response-variable slope (four-parameter) Logistic model to calculate IC50.

B1: 53E5(hz) (antibody, human IgG1, kappa, V domains shown)
VH: QVQLQESGPGLVKPSETLSLTCTFSGFSLSTSGMGVGWIRQPPGKGLEWLAHILWDDVKRYNPALKSRLTISKDSSKSQISLKLSSVTAADTAVYYCVQMAWDWFAYWGQGTTVTVSS
VL: DIQMTQSPSSLSASVGDRVTITCKASQNVDTNVAWYQQKPGQSPKALIYSASYRSSGVPSRFSGSGSGTDFTLTISSLQPEDFATYYCQQYHSYPTFGQGTRLEIKR
notes: also called S3E5 (hz); humanized antibody 53E5
- EC50 [1]: 0.0833 µg/mL
- OD450.Max [1]: 1.05 OD450
- EC50 [2]: 0.0641 µg/mL
- EC50 [3]: 0.0699 µg/mL
- EC50 (read off the curve) of GDF15-His for luciferase induction with 0.1 µg/ml antibody present [4]: ~0.02 µg/mL
- EC50 [5]: 0.0648 µg/mL
- EC50 [6]: 0.0588 µg/mL
- Bottom (luciferase activity fold, fitted curve), HEK293 SRE-LUC2-cRET-GFRAL reporter cells [7]: 1.1
- IC50, luciferase in HEK293 SRE-LUC2-cRET-GFRAL reporter cells stimulated with GDF15-His 5 ng/ml [7]: 0.0225 µg/mL
- EC50 [8]: 0.0573 µg/mL
- binding result [9]: no binding (tested: 4 µg/ml)
- Kd [10]: 293 pM
- koff [10]: 0.000271 s⁻¹
- kon [10]: 923000 M⁻¹ s⁻¹
- IC50 [11]: 0.253 µg/mL
